From publication PMC9706586 (Theranostics, 2022) come the findings set out here.

Assay in all cases: SPR; Biacore T200, CM5 chip with immobilised anti-His antibody, 20 °C; His-tagged receptor or antigen captured; serial dilutions of anti-CD20 X-body, IgG or IgA injected (120 s binding, 240 s dissociation, 30 µL/min); 1:1 binding kinetic model or steady-state affinity model
Holding throughout (conditions): both partners purified

The target of one test is T1, FcγRIIb (human, UniProt P31994 43-217).
T1 construct: human FcγRIIb, extracellular domain; source: HEK293F, secreted, purified (HisTrap HP); not shown: His6, C-terminal, kept
T1 sequence (looked up): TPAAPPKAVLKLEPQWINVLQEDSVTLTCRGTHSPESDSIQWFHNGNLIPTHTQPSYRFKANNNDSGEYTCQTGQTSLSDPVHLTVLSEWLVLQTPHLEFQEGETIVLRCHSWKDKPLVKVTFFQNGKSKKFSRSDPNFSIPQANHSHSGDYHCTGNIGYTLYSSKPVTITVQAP

In a further test the target is T2, CD20 (human, UniProt P11836 1-297).
T2 construct: CD20, the antigen of rituximab; His-tagged, captured on the anti-His chip; also called antigen CD20; hCD20
T2 sequence (looked up): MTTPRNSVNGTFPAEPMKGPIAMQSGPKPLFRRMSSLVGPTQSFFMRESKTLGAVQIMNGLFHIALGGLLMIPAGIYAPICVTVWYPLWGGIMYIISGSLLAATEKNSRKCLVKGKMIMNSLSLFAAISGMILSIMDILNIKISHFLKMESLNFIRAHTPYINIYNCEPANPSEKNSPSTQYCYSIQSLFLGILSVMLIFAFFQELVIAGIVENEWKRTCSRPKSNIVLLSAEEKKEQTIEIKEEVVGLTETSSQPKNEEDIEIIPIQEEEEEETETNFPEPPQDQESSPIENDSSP

A further test concerns the target T3, FcγRIIa^H131 (human, UniProt P12318 34-217).
T3 construct: The methods name FcγRIIa only; source: HEK293F, secreted, purified (HisTrap HP); not shown: His6, C-terminal, kept
T3 sequence (looked up): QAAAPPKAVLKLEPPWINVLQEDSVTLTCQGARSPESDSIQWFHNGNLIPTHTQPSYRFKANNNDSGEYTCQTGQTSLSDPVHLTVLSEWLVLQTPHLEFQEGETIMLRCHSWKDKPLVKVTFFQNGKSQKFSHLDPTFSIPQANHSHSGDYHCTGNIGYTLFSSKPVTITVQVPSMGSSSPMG

The next test deals with T4, FcγRIIIa^F158 (human, UniProt P08637 17-208).
T4 construct: source: HEK293F, secreted, purified (HisTrap HP); not shown: His6, C-terminal, kept
T4 sequence (P08637 17-208): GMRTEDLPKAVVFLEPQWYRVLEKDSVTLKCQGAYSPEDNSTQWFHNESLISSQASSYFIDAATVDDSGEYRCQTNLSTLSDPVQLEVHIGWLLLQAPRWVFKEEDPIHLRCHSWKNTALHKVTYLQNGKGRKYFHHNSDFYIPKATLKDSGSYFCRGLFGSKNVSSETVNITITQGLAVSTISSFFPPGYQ

B1: Rituximab X-body (antibody, human IgG1, kappa)
heavy: not shown
chain: QIVLSQSPAILSASPGEKVTMTCRASSSVSYIHWFQQKPGSSPKPWIYATSNLASGVPVRFSGSGSGTSYSLTISRVEAEDAATYYCQQWTSNPPTFGGGTKLEIKRTVAAPSVFIFPPSDEQLKSGTASVVCLLNNFYPREAKVQWKVDNALQSGNSQESVTEQDSKDSTYSLSSTLTLSKADYEKHKVYACEVTHQGLSSPVTKSFNRGECGGGGSGGGGSGGGGSGGGGSGGGGSGGGGSVPPPPPCCHPRLSLHRPALEDLLLGSEANLTCTLTGLRDASGATFTWTPSSGKSAVQGPPERDLCGCYSVSSVLPGCAQPWNHGETFTCTAAHPELKTPLTANITKSGNTFRPEVHLLPPPSEELALNELVTLTCLARGFSPKDVLVRWLQGSQELPREKYLTWASRQEPSQGTTTYAVTSILRVAAEDWKKGETFSCMVGHEALPLAFTQKTIDRMAGK
notes: 6×G4S linker; IgA2 Fc (hinge, CH2, CH3) without the tailpiece region; Tetramer of two heavy chains and two chimeric chains: two Fabs, one IgG1 Fc, one IgA2 Fc; also called anti-CD20 X-body; anti-human CD20 X-body with 6×G4S linker; source: HEK293F, transfected (pTT5), purified (HiTrap Protein A, Superdex 200 Increase); copies: 2 + 2
In the case of B1, the Kd with FcγRIIb came out at 0.00422 nM; in the test with CD20 it was 8.04 nM; with FcγRIIa^H131, 0.0364 nM; with FcγRIIIa^F158, 0.0216 nM.
